Experimental data from patent US20230012273A1 (Boehringer Ingelheim, published 2023).
Positions count from the first letter of the chain named.

B1: Antibody A2 (antibody, human IgG1, kappa, L234A L235A, V domains shown)
VH: EVQLVESGGGLVQPGGSLRLSCAASGFTLSSYDMHWVRQATGKGLEWVSAIGTAGDTYYTGSVKGRFTISRENAKNSLYLQMNSLRAADTAVYYCVRGGVWDDAFDIWGQGTMVTVSS
VL: DIQMTQSPSSLSASVGDRVTITCRASQGINNYAAWFQQKPGKAPKSLIYTASSLHSGVPSKFSGSGSGTDFTLTISSLQPEDFATYYCQQYVSYPYTFGQGTKLEIKR
B2: Antibody A8 (antibody, human IgG1, kappa, L234A L235A, V domains shown)
VH: B1 VH with T41P, A88G
VL: B1 VL
B3: Antibody A6 (antibody, human IgG1, kappa, L234A L235A, V domains shown)
VH: B1 VH with T41P, A88E
VL: B1 VL
B4: Antibody A3 (antibody, human IgG1, kappa, L234A L235A, V domains shown)
VH: B1 VH with A88S
VL: B1 VL
B5: Antibody A9 (antibody, human IgG1, kappa, L234A L235A, V domains shown)
VH: B1 VH with T41P, A88D
VL: B1 VL with G28D, A33L
B6: Antibody A12 (antibody, human IgG1, kappa, L234A L235A, V domains shown)
VH: B1 VH with A88S
VL: B1 VL with G28D, A33L
B7: Antibody A13 (antibody, human IgG1, kappa, L234A L235A, V domains shown)
VH: B1 VH with T41P
VL: B1 VL with G28D, A33L
B8: Antibody A7 (antibody, human IgG1, kappa, L234A L235A, V domains shown)
VH: B1 VH with A88G
VL: B1 VL

Tests used:
Test in all cases: SPR, Ab captured, ECD-His analyte
[1] = biological target: T1, cynomolgus SIRPα extracellular domain + His-tag (EGM_02252) (cynomolgus monkey)
T1 construct: also called CySIRPα EGM_02252; cynoSIRPα
T1 chain: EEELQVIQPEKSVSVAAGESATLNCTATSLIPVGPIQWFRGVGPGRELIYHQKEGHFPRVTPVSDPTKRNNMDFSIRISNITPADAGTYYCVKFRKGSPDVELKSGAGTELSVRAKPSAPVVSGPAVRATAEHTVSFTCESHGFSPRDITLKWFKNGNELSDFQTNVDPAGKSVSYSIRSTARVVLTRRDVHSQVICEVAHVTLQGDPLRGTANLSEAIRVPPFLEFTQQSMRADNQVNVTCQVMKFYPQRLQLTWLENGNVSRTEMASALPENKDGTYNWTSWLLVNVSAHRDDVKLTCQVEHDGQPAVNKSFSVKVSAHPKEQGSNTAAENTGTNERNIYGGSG
Protocol: (§1) The binding affinity of anti-SIRPα antibodies to the various SIRPα analytes is determined by surface plasmon resonance (SPR) using a ProteOn XPR36 (Bio-Rad). The running buffer for this experiment and all dilutions (except where stated) are done in 1×HBS-EP+. […] The sensorchip is deactivated with 1M ethanolamine HCl for 420 sec at a flowrate of 10 μl/min.
(§2) The analyte is injected over the captured antibody for 300 sec at a flowrate of 30 μl/min. The dissociation is done for 600 sec. Two-fold serial dilutions of each SIRP protein (Extracellular Domain+His-Tag) are injected as analyte with the highest concentrations indicated in table 36 below.

[2] = biological target: T2, cynomolgus SIRPβ1v3 extracellular domain + His-tag (XP_005568593) (cynomolgus monkey)
T2 construct: also called Cyno SIRPβ1v3; cynoSIRPβ1v3
T2 chain: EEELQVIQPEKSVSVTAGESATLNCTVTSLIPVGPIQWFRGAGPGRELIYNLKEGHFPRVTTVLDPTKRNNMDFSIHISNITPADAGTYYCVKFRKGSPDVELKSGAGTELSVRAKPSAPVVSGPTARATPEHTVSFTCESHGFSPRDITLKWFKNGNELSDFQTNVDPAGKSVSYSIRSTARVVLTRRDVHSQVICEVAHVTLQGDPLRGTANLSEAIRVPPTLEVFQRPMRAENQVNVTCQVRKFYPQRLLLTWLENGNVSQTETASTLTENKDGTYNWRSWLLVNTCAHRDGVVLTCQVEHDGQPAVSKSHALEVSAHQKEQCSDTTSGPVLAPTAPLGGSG
Protocol: as §1, §2

[3] = biological target: T3, cynomolgus SIRPβ1 extracellular domain + His-tag (XP_005568598) (cynomolgus monkey)
T3 construct: also called Cyno SIRPβ1; cynoSIRPβ1
T3 chain: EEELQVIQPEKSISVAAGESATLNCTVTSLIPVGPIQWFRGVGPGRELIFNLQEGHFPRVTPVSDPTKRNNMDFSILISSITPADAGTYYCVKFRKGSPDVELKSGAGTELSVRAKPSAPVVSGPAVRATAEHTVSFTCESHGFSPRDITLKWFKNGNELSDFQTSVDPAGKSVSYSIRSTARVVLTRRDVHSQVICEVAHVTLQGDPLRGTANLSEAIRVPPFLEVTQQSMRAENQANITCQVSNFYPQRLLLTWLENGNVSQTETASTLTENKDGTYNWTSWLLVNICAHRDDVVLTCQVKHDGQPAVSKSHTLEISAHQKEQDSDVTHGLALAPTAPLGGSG
Protocol: as §1, §2

[4] = biological target: T4, cynomolgus SIRPγ extracellular domain + His-tag (XP_005568591) (cynomolgus monkey, UniProt Q9P1W8 29-359 (human entry))
T4 construct: also called Cyno SIRPγ; cynoSIRPγ
T4 chain: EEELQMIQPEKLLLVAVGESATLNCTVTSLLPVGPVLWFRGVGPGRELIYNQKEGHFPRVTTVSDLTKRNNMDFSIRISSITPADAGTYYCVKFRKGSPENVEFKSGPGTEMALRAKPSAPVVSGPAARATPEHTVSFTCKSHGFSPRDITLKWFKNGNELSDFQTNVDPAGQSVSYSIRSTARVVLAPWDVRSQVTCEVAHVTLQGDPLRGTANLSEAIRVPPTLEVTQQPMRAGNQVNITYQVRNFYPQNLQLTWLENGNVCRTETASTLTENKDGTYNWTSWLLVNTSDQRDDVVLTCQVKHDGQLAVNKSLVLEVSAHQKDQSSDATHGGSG
Protocol: as §1, §2

[5] = biological target: T5, cynomolgus SIRPα extracellular domain + His-tag (XP_015313155) (cynomolgus monkey)
T5 construct: also called CySIRPα XP_015313155; cynoSIRPα
T5 chain: T1 chain with E19D, A27V, T28S, V42A, H51N, Q52L, F227V, M245T
Protocol: as §1, §2

[6] = biological target: T6, human SIRPβ1 extracellular domain + His-tag (NP_006056.2) (human, UniProt O00241 30-371)
T6 construct: also called hSIRPβ1; HuSIRPβ1
Protocol: as §1, §2

[7] = biological target: T7, human SIRPβL/SIRPβ1v3 extracellular domain + His-tag (NP_001129316.1) (human, UniProt Q5TFQ8 30-371)
T7 construct: also called hSIRPβ1v3; HuSIRPβ1v3
Protocol: as §1, §2

[8] = biological target: T8, human SIRPγ extracellular domain + His-tag (NP_061026.2) (human, UniProt Q9P1W8 29-360)
T8 construct: also called hSIRPγ; HuSIRPγ
Protocol: as §1, §2

T8 sequence (Q9P1W8 29-360): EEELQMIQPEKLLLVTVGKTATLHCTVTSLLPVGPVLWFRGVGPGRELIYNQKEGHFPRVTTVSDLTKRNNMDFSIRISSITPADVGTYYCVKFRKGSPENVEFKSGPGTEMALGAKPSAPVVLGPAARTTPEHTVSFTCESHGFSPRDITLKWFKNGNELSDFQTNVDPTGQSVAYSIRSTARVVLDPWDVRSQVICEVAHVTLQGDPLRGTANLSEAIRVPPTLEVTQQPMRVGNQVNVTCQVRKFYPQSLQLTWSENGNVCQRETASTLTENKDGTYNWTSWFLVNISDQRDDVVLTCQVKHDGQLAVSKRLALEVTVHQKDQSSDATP
T6 sequence (O00241 other isoform, or with tags, fused parts or gaps): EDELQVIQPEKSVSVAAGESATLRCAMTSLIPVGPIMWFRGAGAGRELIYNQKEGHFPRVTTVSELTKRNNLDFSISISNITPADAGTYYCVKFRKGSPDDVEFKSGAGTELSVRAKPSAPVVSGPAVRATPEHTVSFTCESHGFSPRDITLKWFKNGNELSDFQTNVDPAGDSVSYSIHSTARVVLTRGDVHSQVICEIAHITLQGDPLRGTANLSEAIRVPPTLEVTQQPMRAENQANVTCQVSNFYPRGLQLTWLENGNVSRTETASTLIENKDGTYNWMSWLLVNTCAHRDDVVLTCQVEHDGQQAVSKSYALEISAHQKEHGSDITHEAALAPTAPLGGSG
T7 sequence (Q5TFQ8 other isoform, or with tags, fused parts or gaps): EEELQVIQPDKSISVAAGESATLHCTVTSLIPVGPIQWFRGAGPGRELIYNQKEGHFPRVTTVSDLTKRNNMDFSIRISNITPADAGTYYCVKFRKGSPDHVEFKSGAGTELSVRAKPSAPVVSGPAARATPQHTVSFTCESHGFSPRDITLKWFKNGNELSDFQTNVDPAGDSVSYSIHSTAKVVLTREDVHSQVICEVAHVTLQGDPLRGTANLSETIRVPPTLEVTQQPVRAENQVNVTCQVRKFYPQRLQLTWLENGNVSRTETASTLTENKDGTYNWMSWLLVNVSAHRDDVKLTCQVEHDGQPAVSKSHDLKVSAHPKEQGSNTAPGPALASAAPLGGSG

Binder	Kd [1] [nM]	Kd [2] [nM]	binding result [3]	binding result [4]	Kd [5] [nM]	Kd [6] [nM]	binding result [7]	binding result [8]
B1	584	552	no binding (tested: 1000 nM)	no binding (tested: 1000 nM)	424	77.5	no binding (tested: 100 nM)	no binding (tested: 1000 nM)
B2	535	449	no binding (tested: 1000 nM)	no binding (tested: 1000 nM)	350	69.6	no binding (tested: 100 nM)	no binding (tested: 1000 nM)
B3	538	469	no binding (tested: 1000 nM)	no binding (tested: 1000 nM)	366	65.1	no binding (tested: 100 nM)	no binding (tested: 1000 nM)
B4	571	564	no binding (tested: 1000 nM)	no binding (tested: 1000 nM)	438	70.3	no binding (tested: 100 nM)	no binding (tested: 1000 nM)
B5	227	257	no binding (tested: 1000 nM)	no binding (tested: 1000 nM)	156	58.8	no binding (tested: 100 nM)	no binding (tested: 1000 nM)
B6	249	279	no binding (tested: 1000 nM)	no binding (tested: 1000 nM)	182	64.4	no binding (tested: 100 nM)	no binding (tested: 1000 nM)
B7	226	238	no binding (tested: 1000 nM)	no binding (tested: 1000 nM)	160	61	no binding (tested: 100 nM)	no binding (tested: 1000 nM)
B8	609	494	no binding (tested: 1000 nM)	no binding (tested: 1000 nM)	389	72.2	no binding (tested: 100 nM)	no binding (tested: 1000 nM)
